The values that follow come from patent publication US20140193915, “COMPOSITIONS AND METHODS FOR CUSTOM SITE-SPECIFIC DNA RECOMBINASES” (Monsanto Technology, LLC, published 2014).

The target in one series is T1, sN-TALER N4.2.2 (synthetic).
T1 chain: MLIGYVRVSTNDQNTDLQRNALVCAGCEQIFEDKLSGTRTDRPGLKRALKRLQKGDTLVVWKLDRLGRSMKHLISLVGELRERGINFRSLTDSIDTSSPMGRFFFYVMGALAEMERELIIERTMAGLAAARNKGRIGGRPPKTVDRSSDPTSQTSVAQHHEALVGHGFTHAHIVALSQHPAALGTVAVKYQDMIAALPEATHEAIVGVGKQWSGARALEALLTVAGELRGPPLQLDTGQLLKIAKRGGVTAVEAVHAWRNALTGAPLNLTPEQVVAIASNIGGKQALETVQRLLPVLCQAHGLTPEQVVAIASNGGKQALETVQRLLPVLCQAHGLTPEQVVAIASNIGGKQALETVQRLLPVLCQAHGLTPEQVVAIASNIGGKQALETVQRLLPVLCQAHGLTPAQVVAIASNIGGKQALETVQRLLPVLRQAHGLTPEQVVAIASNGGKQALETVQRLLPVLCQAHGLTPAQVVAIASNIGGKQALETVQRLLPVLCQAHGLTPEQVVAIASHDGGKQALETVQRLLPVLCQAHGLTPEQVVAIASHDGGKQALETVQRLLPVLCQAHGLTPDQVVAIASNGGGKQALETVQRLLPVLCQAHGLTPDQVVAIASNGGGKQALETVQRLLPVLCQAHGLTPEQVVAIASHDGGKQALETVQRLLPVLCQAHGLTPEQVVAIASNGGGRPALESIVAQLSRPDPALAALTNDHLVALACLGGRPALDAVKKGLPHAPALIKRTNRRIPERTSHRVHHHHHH
The series can be described thus: cell_activity; E. coli. As to the method:
(§1) The co-transformed bacteria were plated on media with chloramphenicol, kanamycin, and X-gal then incubated at 37° C. for 18 to 36 hours. Control samples consisted of transformations using the reporter construct alone. Control transformants were similarly plated. The bacterial transformation protocol was either heat shock or electroporation per standard molecular biology techniques.
(§2) For each of these N-TALER chimera expression constructs, from one to three independent clones were selected for plasmid purification. These N-TALER chimera expression constructs were co-transformed with five of the N-TALER reporter constructs, as indicated in Table 15. […] In contrast to the result for pN-TALER N4.2.2, the chimera sN-TALER N4.2.2, with the same truncation point but a specific recombinase catalytic domain, reporters with 20, 24, or 40 bp of TALER central sequence length were efficiently recombined (score of 1) while reporters with 30 or 50 bp of TALER central sequence length were not recombined (score of 5). For the chimera sN-TALER N4.2, reporters with 20, 24, or 40 bp of TALER central sequence length were efficiently recombined (score of 1); the reporter with 30 bp of TALER central sequence length was poorly recombined (score of 3); and the reporter with 50 bp of TALER central sequence length was not recombined (score of 5). For the chimera pN-TALER N4.2, the recombination efficiency on the reporters tested varied from intermediate (scores of 3 and 4) to none (score of 5). […] In contrast to the result for sN-TALER N3.2, the chimera pN-TALER N3.2, with the same truncation point but a permissive recombinase catalytic domain, recombination efficiency on the reporters tested varied from efficient (scores of 1.5, 2, and 3) to none (score of 5). For both chimeras sN-TALER V.2 and pN-TALER V.2, there was efficient recombination (scores of 1, 1.5, and 2) of the 5 N-TALER reporter constructs tested.

Another series deals with T2, sN-TALER N4.2 (synthetic).
T2 chain: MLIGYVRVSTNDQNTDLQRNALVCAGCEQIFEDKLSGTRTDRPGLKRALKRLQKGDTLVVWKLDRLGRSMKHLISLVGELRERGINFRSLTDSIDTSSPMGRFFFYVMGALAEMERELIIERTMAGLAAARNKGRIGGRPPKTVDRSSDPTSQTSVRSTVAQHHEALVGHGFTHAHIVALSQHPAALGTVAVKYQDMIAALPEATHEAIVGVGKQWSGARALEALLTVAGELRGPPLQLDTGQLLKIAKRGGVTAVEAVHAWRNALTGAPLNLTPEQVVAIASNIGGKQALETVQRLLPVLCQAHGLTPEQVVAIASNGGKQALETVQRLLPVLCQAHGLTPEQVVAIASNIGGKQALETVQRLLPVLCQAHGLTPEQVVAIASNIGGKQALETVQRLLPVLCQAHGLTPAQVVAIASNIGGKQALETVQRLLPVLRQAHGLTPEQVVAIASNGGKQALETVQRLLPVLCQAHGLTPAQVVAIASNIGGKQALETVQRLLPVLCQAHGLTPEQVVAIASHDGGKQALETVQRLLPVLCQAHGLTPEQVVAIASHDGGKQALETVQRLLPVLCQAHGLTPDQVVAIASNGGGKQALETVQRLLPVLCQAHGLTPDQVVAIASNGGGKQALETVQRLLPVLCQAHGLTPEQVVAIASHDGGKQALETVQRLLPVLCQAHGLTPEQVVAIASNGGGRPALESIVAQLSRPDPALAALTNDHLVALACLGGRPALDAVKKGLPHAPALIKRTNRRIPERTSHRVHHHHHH
Nature of the series: cell_activity; E. coli. The protocol: as §1, §2

Changes are numbered by the printed parent chain.

B1: Gin18TALE+1 (dsDNA)
DNA 1: AGAAGGTATTTATATCCAAAACCATGGTTTACAATATAAATACCTTCT
DNA 2: B1 DNA 1 with C16T, C17G, A18T, A31T, C32G, A33G
As to B1, the activity in the series with sN-TALER N4.2.2 and in the series with sN-TALER N4.2 was 1 score each time.
